In test [1] the target is T1, Human IL-36R-Fc (human, UniProt Q9HB29 20-335).
T1 sequence (looked up): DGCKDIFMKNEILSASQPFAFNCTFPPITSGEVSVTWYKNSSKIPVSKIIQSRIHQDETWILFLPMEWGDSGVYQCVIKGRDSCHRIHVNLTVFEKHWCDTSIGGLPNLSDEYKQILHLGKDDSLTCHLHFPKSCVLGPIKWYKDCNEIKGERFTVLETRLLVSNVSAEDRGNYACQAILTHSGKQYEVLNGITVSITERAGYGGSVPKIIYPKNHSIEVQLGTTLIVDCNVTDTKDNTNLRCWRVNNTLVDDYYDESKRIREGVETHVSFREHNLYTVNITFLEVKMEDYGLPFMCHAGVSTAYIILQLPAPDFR
Description: ELISA.

In test [2] the target is T2, Human IL1RAPL1-Fc (human, UniProt Q9NZN1 19-357).
T2 sequence (looked up): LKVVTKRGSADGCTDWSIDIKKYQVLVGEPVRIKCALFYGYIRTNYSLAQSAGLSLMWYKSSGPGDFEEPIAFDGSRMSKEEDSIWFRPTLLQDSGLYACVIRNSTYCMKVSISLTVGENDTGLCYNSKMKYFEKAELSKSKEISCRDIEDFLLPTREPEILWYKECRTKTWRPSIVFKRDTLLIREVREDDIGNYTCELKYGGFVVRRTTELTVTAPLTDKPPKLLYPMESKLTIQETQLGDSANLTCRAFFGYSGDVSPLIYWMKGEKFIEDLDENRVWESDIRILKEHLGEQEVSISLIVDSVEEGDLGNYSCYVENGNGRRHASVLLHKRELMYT
Description: ELISA.

B1: Recombinant full length human IL-38 (ligand, UniProt Q8WWZ1 1-152, looked up)
chain: MCSLPMARYYIIKYADQKALYTRDGQLLVGDPVADNCCAEKICILPNRGLARTKVPIFLGIQGGSRCLACVETEEGPSLQLEDVNIEELYKGGEEATRFTFFQSSSGSAFRLEAAAWPGWFLCGPAEPQQPVQLTKESEPSARTKFYFEQSW
As to B1, the binding result in test [1] and in test [2] was “binds” each time.

Values taken from paper PMC10208126 (mAbs, 2023).
